Assay [1] concerns the target mannosylated surface IgM (sIgM-Mann) of the FL-derived cell line WSU-FSCCL (human (endogenous in WSU-FSCCL)) (UniProt P01871).
The target of assay [2] is DC-SIGN-HA (DC-SIGN fused to the HA epitope tag) (UniProt Q9NNX6). In words: SEC; analytical gel filtration of recombinant DC-SIGN-Fc and DC-SIGN-HA; data not shown; the high Stokes radius prevented a more accurate measurement of molecular mass.
The target in assay [3] is mannosylated surface IgM (sIgM-Mann) of the FL-derived cell line WSU-FSCCL (human (endogenous in WSU-FSCCL)) (UniProt P01871). The source holds these as a separate data set.
For assay [4], the target named is T1, DC-SIGN-Fc (recombinant DC-SIGN fused to Fc), Q9NNX6.
T1 chain: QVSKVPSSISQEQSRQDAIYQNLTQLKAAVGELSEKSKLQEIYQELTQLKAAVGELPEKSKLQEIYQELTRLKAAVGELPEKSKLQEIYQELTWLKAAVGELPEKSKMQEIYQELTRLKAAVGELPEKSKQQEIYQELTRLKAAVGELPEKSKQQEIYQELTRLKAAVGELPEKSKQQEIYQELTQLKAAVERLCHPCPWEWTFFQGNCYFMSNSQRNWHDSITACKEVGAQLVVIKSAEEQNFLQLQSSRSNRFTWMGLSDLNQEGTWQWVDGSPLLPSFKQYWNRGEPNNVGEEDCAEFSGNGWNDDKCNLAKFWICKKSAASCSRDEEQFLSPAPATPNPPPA
In words: SEC; analytical gel filtration of recombinant DC-SIGN-Fc and DC-SIGN-HA; data not shown; the high Stokes radius prevented a more accurate measurement of molecular mass. As to conditions: remark: other sources report otherwise.

Chain of UniProt P01871 (P01871 whole entry, looked up, the tested form may be a part): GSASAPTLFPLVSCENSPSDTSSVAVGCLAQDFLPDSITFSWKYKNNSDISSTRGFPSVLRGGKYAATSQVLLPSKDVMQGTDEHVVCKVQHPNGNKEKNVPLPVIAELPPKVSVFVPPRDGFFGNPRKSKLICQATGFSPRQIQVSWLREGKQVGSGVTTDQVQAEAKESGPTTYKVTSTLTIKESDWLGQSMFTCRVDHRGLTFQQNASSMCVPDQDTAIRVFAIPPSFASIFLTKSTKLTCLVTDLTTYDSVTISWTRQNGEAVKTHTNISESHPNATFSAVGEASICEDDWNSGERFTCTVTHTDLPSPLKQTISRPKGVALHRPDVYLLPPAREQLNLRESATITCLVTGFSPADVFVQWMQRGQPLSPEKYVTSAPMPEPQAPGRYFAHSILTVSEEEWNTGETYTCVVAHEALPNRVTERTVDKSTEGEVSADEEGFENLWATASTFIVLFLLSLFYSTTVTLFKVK

In the case of “DC-SIGN-HA (DC-SIGN fused to the HA epitope tag) (from UniProt Q9NNX6 1-404) (natural protein)”, in assay [1], the inhibition of the anti-IgM-induced iCa2+ flux in WSU-FSCCL cells after pre-exposure to DC-SIGN-HA stood at 50%. Further, the stoichiometry N in assay [2] was > 4.
With “DC-SIGN-Fc (recombinant DC-SIGN fused to Fc) (from UniProt Q9NNX6 59-404) (Fc fusion)”, in assay [1], the inhibition of the anti-IgM-induced iCa2+ flux in WSU-FSCCL cells after pre-exposure to DC-SIGN-Fc was found to be 80%. This molecule registered a recovery of the anti-IgM-induced iCa2+ response in WSU-FSCCL cells after removal of pre-bound DC-SIGN-Fc with mannan (15 or 30 min at 37 °C) in assay [3] of 50%.

B1: DC-SIGN-Fc (recombinant DC-SIGN fused to Fc), Q9NNX6 59-404 (Fc fusion)
chain: QVSKVPSSISQEQSRQDAIYQNLTQLKAAVGELSEKSKLQEIYQELTQLKAAVGELPEKSKLQEIYQELTRLKAAVGELPEKSKLQEIYQELTWLKAAVGELPEKSKMQEIYQELTRLKAAVGELPEKSKQQEIYQELTRLKAAVGELPEKSKQQEIYQELTRLKAAVGELPEKSKQQEIYQELTQLKAAVERLCHPCPWEWTFFQGNCYFMSNSQRNWHDSITACKEVGAQLVVIKSAEEQNFLQLQSSRSNRFTWMGLSDLNQEGTWQWVDGSPLLPSFKQYWNRGEPNNVGEEDCAEFSGNGWNDDKCNLAKFWICKKSAASCSRDEEQFLSPAPATPNPPPA
In the case of B1, in assay [4], the stoichiometry N was > 4.

Source of the values: paper PMC8175722.
